Data on 1 molecule can be found in paper doi:10.1101/303024 (bioRxiv, 2018).

This assay deals with T1, Cdc24-6xHis (full-length, wild type) (S. cerevisiae (budding yeast), UniProt P11433 1-854).
T1 sequence: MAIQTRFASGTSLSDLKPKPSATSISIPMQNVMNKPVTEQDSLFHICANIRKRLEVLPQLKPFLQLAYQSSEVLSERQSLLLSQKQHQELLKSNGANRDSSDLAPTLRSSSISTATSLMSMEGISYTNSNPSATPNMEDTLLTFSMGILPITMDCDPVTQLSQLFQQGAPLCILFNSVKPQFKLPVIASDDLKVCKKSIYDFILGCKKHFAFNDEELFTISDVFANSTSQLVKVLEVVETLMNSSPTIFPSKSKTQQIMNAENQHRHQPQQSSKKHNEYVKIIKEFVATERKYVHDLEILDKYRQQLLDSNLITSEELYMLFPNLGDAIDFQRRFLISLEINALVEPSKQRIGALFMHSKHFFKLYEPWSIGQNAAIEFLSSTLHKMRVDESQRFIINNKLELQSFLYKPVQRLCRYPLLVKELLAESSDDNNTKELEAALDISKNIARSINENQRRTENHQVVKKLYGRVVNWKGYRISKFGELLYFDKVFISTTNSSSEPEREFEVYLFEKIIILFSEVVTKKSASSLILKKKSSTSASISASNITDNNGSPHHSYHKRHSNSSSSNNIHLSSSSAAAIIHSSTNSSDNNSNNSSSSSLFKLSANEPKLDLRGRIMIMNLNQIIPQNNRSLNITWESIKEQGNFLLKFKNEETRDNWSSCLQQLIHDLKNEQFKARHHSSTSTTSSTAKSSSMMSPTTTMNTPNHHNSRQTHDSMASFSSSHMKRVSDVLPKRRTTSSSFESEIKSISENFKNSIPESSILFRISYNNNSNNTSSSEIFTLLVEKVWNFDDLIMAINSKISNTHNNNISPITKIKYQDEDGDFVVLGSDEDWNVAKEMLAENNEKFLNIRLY
Description: liposome floatation.

B1: Bem1 (full-length, wild type) (natural protein)
chain: MLKNFKLSKRDSNGSKGRITSADISTPSHDNGSVIKHIKTVPVRYLSSSSTPVKSQRDSSPKNRHNSKDITSPEKVIKAKYSYQAQTSKELSFMEGEFFYVSGDEKDWYKASNPSTGKEGVVPKTYFEVFDRTKPSSVNGSNSSSRKVTNDSLNMGSLYAIVLYDFKAEKADELTTYVGENLFICAHHNCEWFIAKPIGRLGGPGLVPVGFVSIIDIATGYATGNDVIEDIKSVNLPTVQEWKSNIARYKASNISLGSVEQQQQQSITKPQNKSAKLVDGELLVKASVESFGLEDEKYWFLVCCELSNGKTRQLKRYYQDFYDLQVQLLDAFPAEAGKLRDAGGQWSKRIMPYIPGPVPYVTNSITKKRKEDLNIYVADLVNLPDYISRSEMVHSLFVVLNNGFDREFERDENQNNIKTLQENDTATFATASQTSNFASTNQDNTLTGEDLKLNKKLSDLSLSGSKQAPAQSTSGLKTTKIKFYYKDDIFALMLKGDTTYKELRSKIAPRIDTDNFKLQTKLFDGSGEEIKTDSQVSNIIQAKLKISVHDI
As to B1, the binding result is listed as “binds”.
